{
  "source": "patent US5763177",
  "about": "“Systematic evolution of ligands by exponential enrichment: photoselection of nucleic acid ligands and solution selex” (NeXstar Pharmaceuticals, Inc.)",
  "key": {"HIV-2 Rev [1]": {"target": "T1, HIV-2 Rev (Human immunodeficiency virus 2, UniProt P04615 P04615:1-100)", "T1 sequence": "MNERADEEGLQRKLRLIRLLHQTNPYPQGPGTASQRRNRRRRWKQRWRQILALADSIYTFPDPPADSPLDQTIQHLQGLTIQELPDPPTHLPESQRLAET", "test": "photocrosslinking 325 nm 4 min, 500 nM protein, 20 ug tRNA, 37 C", "conditions": "hairpin", "excerpt": "(§1) The sequences are aligned for maximum homology to the 6a sequence (SEQ ID NO:5). Underlines represent potential base pairing as indicted by computer RNA folding algorithms. Dashed underlines represent the 6a ligand \"bubble\" motif. Sequences flanked by underline represent either loop or bulge regions. Dashes are placed to maximize alignment with 6a. * denotes that two isolates were obtained. +indicates laser independent crosslinking and—denotes the lack of laser independent crosslinking to HIV-1 Rev. […] FIGS. 18 and 19 show the sequence of Trunc2 (SEQ ID NO:58) and Trunc24 (SEQ ID NO:59) and the specificity results. 500 nM protein, 20 µg tRNA, and approximately 1 nM of kinased trunc2 RNA were incubated for 10 min. at 37° C. and irradiated for 4 min at 325 nm. t2-trunc2 RNA irradiated without added protein; t2Rev1/0'-trunc2 RNA, HIV-1 Rev protein and 0 min. of irradiation; t2/Rev1/4'-trunc2 RNA, HIV-1 Rev protein, adn 4 min. of irradiation; t2/Rev1/4'/ PK-trunc2 RNA, HIV1 Rev protein, 4 min. or irradiation, and proteinase K treated as in FIG. 1; t2/Rev2/4'-trunc2 RNA, HIV-2 Rev protein, and 4 min. of irradiation; t2/Tat/ 4'-trunc2 RNA, HIV-1 Tat protein, and 4 min. of irradiation. R-free RNA; XL-crosslinked nucleoprotein complex."}, "HIV-1 Rev [2]": {"target": "T2, HIV-1 Rev (Human immunodeficiency virus 1, UniProt P04618 P04618:1-116)", "T2 sequence (P04618 whole entry, one chain of several)": "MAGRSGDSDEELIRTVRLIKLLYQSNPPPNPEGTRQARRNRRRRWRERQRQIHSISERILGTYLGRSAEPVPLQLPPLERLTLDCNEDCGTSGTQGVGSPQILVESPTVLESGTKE", "test": "monophasic; laser-dependent crosslinking at 325 nm", "conditions": "hairpin", "excerpt": "as §1"}, "[3]": {"target": "T3, R17 bacteriophage coat protein (Bacteriophage R17, UniProt P69170 P69170:1-129)", "T3 sequence (P69170 whole entry, one chain of several)": "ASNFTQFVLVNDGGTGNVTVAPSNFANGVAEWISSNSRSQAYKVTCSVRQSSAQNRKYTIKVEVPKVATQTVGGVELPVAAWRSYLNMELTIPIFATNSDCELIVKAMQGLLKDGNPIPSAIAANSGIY", "test": "filter; value only in figure; TMK buffer 10 mM Mg acetate, 80 mM KCl, 100 mM Tris pH 8.5, 4 C", "conditions": "tags: purified from R17 phage propagated in E. coli S26; chain copies: 2; label: 32P; hairpin", "procedure": "(§2) RNA-protein binding curves for hairpin variants RNA1 (SEQ ID NO:1), RNA-2 (SEQ ID NO:2) and RNA-3 (SEQ ID NO:3) to the bacteriophage R17 coat protein are shown in FIG. 7. The association constants between coat protein and the RNA hairpin variants were determined with a nitrocellulose filter retention assay described by Carey and co-workers (Carey et al. (1983) supra). A constant, low-concentration of ^32p-labeled RNA was mixed with a series of coat protein concentrations between 0.06 nM and 1 µM in 10 mM magnesium acetate, 80 mM KCL, 80 Ag/ml BSA, and 100 mM Tris-HCl (pH 8.5 at 4° C.) (TMK buffer). These were the same solution conditions used in the crosslinking experiments. After incubation at 4° C. for 45–60 min, the mixture was filtered through a nitrocellulose filter and the amount of complex retained on the filter determined by liquid scintillation counting."}, "[4]": {"target": "T3, R17 bacteriophage coat protein", "test": "filter; value only in figure; TMK buffer 10 mM Mg acetate, 80 mM KCl, 100 mM Tris pH 8.5, 4 C; near-quantitative crosslinking at 325 nm", "conditions": "tags: purified from R17 phage propagated in E. coli S26; chain copies: 2; label: 32P; hairpin"}, "[5]": {"target": "T3, R17 bacteriophage coat protein", "test": "filter; value only in figure; TMK buffer 10 mM Mg acetate, 80 mM KCl, 100 mM Tris pH 8.5, 4 C; crosslinks max about 40% at 308 nm", "conditions": "tags: purified from R17 phage propagated in E. coli S26; chain copies: 2; label: 32P; hairpin", "procedure": "as §2\n^32P-Labeled RNA sequences RNA-1 (SEQ ID NO:1) and RNA-2 (SEQ ID NO:2) (5 nM) and R17 coat protein (120 nM) were each incubated on ice in 100 mM Tris-HCl (pH 8.5 at 4° C.), 80 mM KCl, 10 mM magnesium acetate, […] of BSA for 15–25 min before irradiations. These are conditions under which the RNA is fully bound to the coat protein. […] Crosslinked RNA was separated from uncrosslinked RNA by PAGE, and the yields were determined by autoradiography."}, "[6]": {"target": "T3, R17 bacteriophage coat protein", "test": "photocrosslinking at 308 nm 5 min, 6.75 nM RNA, 120 nM protein", "conditions": "tags: purified from R17 phage propagated in E. coli S26; chain copies: 2; hairpin", "procedure": "RNA-7 (SEQ ID NO:4) (FIG. 11) was prepared using methodology as reported in Example 1 using a plasmid instead of a DNA template. The photocrosslinking was performed as described in Example 3. A 4 ml reaction mixture consisting of 6.75 nM RNA and 120 nM R17 coat protein was irradiated, 2 ml at a time, at 308 nm with unfocused emission from a XeCl excimer laser. The laser produced 50 mJ/pulse and was operated at 10 Hz. The reaction proceeded to near quantitative crosslinking, 85–90%, in 5 min of irradiation. After crosslinking, 1 ml of the total reaction mixture was removed; EDTA (80 mM), SDS (0.1%), and CaCl_2 (0.1 mM) were added; the free (unbound) RNA present was purified away; and the protein digested with Proteinase K at 60° C. for 30 min. The RNA bound to residual protein was ethanol precipitated to remove salts and spun to a pellet. The pellet was washed three times with 70% ethanol to remove any residual salts. A reverse transcription reaction was employed to make a complementary DNA copy of the RNA template. A 13-base […] was annealed to the RNA and the reverse transcription reaction was performed under the standard conditions of the manufacturer, Gibco (Gaithersburg, Md.), and was stopped after 1 hr. […] No stop in the 31 nucleotide region of the gel appeared; this established that the reverse transcriptase had read through the position of the crosslink. […]"}, "HIV-2 Rev [7]": {"target": "T1, HIV-2 Rev", "test": "photocrosslinks (data not shown); no laser-independent crosslink (FIG. 19)", "conditions": "hairpin"}, "HIV-1 Rev [8]": {"target": "T2, HIV-1 Rev", "test": "monophasic; crosslinks with and without laser, also at 50 nM Rev in human nuclear extract (FIG. 20)", "conditions": "hairpin", "procedure": "To test for the ability of trunc24 (SEQ ID NO:59) to discriminate HIV-1 Rev in a complex mixture, trunc24 and 10 µg of human fibroblast nuclear extract together with decreasing amounts of HIV-1 Rev (FIG. 20). At 50 nM Rev and a 1:100 weight ratio of Rev to nuclear extract, it was possible to see a very significant crosslinked product between trunc24 and Rev."}},
  "data": [
    {"binder": "GGGUGUAUGAAACACCACGUGUGUUUCCACUC (ssRNA, 5-iodouracil in place of all U)", "note": "[trunc2]", "values": [
      {"measurement": "binding result", "setting": "HIV-2 Rev [1]", "result": "binds"},
      {"measurement": "Kd", "setting": "HIV-1 Rev [2]", "result": 0.5, "unit": "nM"}
    ]},
    {"binder": "GGGAGCGAGCAAUAGCCGC (ssRNA)", "note": "[RNA-3]", "values": [
      {"measurement": "binding result", "setting": "[3]", "result": "binds"}
    ]},
    {"binder": "GGGAGCGAGCAAUAGCCGC (ssRNA, 5-iodouracil in place of U)", "note": "[RNA-2]", "values": [
      {"measurement": "binding result", "setting": "[4]", "result": "binds"}
    ]},
    {"binder": "GGGAGCGAGCAAUAGCCGC (ssRNA, 5-bromouracil in place of U)", "note": "[RNA-1]", "values": [
      {"measurement": "binding result", "setting": "[5]", "result": "binds"}
    ]},
    {"binder": "GAACAUGAGGAUUACCCAUGAAUUCGAGCUCGCCCGGGCUCUAG (ssRNA, 5-iodouracil in place of U)", "note": "[RNA-7]", "values": [
      {"measurement": "binding result", "setting": "[6]", "result": "binds"}
    ]},
    {"binder": "GGGGAUUAACAGGCACACCUGUUAACCCU (ssRNA, 5-iodouracil in place of all U)", "note": "[trunc24]", "values": [
      {"measurement": "binding result", "setting": "HIV-2 Rev [7]", "result": "binds"},
      {"measurement": "Kd", "setting": "HIV-1 Rev [8]", "result": 20, "unit": "nM"}
    ]}
  ]
}
